From paper PMC9482650, “Quantitative fragmentomics allow affinity mapping of interactomes” (Nature Communications, 2022)

How the values were obtained:
Experiment in all cases: holdup assay
Set-up in all cases: key: below the threshold = too weak to quantify, mostly under pKd 3.1 to 4
Settings in all cases: plain residues with an end cap or a label only (N-terminal biotin on a linker: ado-ado)
[1] = target: T1, APBA2_2, Q99767
T1 sequence (Q99767 654-744, limits assumed, looked up): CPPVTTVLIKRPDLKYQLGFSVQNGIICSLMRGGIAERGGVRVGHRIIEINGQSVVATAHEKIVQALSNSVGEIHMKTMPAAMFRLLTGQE

[2] = target: MAGI2_2, Q86UL8
MAGI2_2, Q86UL8, sequence (Q86UL8 410-522): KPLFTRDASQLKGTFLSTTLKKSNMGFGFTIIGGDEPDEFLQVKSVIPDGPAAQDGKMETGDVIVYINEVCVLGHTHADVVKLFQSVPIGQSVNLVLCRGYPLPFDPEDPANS

[3] = target: Inadl_2, Q8NI35
Inadl_2, Q8NI35, sequence (Q8NI35 238-335): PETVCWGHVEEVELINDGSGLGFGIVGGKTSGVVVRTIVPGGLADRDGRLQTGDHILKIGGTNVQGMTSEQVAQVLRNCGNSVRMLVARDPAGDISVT

[4] = target: DLG1_3, Q12959
DLG1_3, Q12959, sequence (Q12959 457-571): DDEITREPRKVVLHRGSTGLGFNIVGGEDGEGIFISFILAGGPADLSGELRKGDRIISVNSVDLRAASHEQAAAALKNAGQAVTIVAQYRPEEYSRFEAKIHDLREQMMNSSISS

[5] = target: T2, APBA2_1, Q99767
T2 sequence (Q99767 563-664, limits assumed, looked up): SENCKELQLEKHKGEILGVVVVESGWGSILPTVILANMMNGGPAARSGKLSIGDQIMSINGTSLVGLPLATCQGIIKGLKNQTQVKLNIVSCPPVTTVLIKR

[6] = target: IL16_4, Q14005
IL16_4, Q14005, sequence (Q14005 1229-1329): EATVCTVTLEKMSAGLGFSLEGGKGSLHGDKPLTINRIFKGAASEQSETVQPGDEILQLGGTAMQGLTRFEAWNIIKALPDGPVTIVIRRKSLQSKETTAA

[7] = target: HTRA2, O43464
HTRA2, O43464, sequence (O43464 355-458): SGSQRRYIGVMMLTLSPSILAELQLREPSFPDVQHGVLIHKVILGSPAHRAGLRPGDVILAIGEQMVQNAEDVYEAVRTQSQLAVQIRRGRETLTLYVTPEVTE

[8] = target: Inadl_5, Q8NI35
Inadl_5, Q8NI35, sequence (Q8NI35 673-780): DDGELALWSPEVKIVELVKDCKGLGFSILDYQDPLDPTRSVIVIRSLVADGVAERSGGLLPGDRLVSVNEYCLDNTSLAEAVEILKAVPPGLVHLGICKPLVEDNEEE

[9] = target: DLG1_2, Q12959
DLG1_2, Q12959, sequence (Q12959 314-412): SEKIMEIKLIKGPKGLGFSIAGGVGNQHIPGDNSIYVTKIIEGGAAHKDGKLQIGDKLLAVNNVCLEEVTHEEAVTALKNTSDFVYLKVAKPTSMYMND

[10] = target: T3, NHERF3_4, Q5T2W1
T3 sequence (Q5T2W1 373-468, limits assumed, looked up): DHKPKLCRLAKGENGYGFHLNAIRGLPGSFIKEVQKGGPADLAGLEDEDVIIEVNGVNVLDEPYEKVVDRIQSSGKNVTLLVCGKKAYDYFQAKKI

[11] = target: GRID2IP_1, A4D2P6
GRID2IP_1, A4D2P6, sequence (A4D2P6 1-87): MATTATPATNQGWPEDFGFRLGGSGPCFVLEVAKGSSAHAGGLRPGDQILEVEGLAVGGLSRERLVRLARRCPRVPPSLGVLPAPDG

[12] = target: T4, SIPA1L2, Q9P2F8
T4 sequence (Q9P2F8 945-1036, limits assumed, looked up): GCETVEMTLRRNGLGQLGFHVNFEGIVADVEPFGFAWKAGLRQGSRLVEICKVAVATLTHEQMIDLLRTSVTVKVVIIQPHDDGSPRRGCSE

[13] = target: T5, GRIP1_7, Q9Y3R0
T5 sequence (Q9Y3R0 999-1096, limits assumed, looked up): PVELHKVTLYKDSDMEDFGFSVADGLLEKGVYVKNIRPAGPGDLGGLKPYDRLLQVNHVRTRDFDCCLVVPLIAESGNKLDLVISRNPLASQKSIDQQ

[14] = target: T6, DLG3_1, Q92796
T6 sequence (Q92796 125-227, limits assumed, looked up): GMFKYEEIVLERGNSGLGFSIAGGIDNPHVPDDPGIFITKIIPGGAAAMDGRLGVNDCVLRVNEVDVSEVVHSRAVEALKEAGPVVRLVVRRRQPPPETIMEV

[15] = target: GIPC2, Q8TF65
GIPC2, Q8TF65, sequence (Q8TF65 112-203): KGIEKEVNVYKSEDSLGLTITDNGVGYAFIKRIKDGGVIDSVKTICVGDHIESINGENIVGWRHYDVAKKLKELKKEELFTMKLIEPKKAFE

[16] = target: DLG2_2, Q15700
DLG2_2, Q15700, sequence (Q15700 189-283): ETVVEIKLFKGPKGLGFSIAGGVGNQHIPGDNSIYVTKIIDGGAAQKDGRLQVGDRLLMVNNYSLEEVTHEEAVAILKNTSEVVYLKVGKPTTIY

[17] = target: FRMPD2_1, Q68DX3
FRMPD2_1, Q68DX3, sequence (Q68DX3 770-861): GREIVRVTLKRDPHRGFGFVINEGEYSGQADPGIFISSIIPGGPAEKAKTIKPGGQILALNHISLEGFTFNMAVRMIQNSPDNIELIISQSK

[18] = target: T7, NHERF3_1, Q5T2W1
T7 sequence (Q5T2W1 4-100, limits assumed, looked up): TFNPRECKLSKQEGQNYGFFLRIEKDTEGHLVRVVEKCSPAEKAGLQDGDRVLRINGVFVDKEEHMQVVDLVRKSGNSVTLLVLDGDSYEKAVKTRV

[19] = target: FRMPD4, Q14CM0
FRMPD4, Q14CM0, sequence (Q14CM0 67-160): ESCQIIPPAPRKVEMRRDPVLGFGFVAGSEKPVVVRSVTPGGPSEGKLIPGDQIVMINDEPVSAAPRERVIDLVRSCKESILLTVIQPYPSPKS

[20] = target: T8, PTPN13_1, Q12923
T8 sequence (Q12923 1088-1188, limits assumed, looked up): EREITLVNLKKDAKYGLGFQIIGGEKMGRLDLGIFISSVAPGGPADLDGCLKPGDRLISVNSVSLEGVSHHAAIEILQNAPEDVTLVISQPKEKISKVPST

[21] = target: MAGI2_3, Q86UL8
MAGI2_3, Q86UL8, sequence (Q86UL8 600-682): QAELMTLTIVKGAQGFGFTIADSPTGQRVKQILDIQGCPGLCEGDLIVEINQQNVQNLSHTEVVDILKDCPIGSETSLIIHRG

[22] = target: T9, ARHGAP21, Q5T5U3
T9 sequence (Q5T5U3 45-169, limits assumed, looked up): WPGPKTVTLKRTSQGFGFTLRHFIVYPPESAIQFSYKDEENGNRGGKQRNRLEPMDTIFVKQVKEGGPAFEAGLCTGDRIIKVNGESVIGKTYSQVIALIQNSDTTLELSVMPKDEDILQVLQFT

[23] = target: T10, LRRC7, Q96NW7
T10 sequence (Q96NW7 1440-1537, limits assumed, looked up): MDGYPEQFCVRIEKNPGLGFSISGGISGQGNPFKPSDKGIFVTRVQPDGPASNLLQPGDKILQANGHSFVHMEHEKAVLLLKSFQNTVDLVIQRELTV

[24] = target: T11, NHERF3_3, Q5T2W1
T11 sequence (Q5T2W1 238-333, limits assumed, looked up): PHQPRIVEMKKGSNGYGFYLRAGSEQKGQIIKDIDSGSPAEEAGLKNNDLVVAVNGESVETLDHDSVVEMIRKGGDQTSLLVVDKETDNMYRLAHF

[25] = target: GRIP2_7, Q9C0E4
GRIP2_7, Q9C0E4, sequence (Q9C0E4 934-1023): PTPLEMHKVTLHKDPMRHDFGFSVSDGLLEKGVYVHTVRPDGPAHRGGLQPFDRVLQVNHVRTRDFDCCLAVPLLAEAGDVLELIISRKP

[26] = target: T12, DFNB31_2, Q9P202
T12 sequence (Q9P202 274-371, limits assumed, looked up): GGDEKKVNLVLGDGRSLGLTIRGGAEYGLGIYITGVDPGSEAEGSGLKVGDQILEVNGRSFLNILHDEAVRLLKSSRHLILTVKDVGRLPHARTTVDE

DSEEELPTRL [GRK6, P43250]
pKd [1]: below the threshold
pKd [2]: 3.54
pKd [3]: below the threshold
pKd [4]: 3.73
pKd [5]: below the threshold
pKd [6]: below the threshold
pKd [7]: below the threshold
pKd [8]: below the threshold
pKd [9]: below the threshold
pKd [10]: 3.79
pKd [11]: below the threshold
pKd [12]: below the threshold
pKd [13]: below the threshold
pKd [14]: below the threshold
pKd [15]: 3.65
pKd [16]: below the threshold
pKd [17]: below the threshold
pKd [18]: 4.06
pKd [19]: 4.39
pKd [20]: below the threshold
pKd [21]: below the threshold
pKd [22]: 4.22
pKd [23]: below the threshold
pKd [24]: 3.7
pKd [25]: below the threshold
pKd [26]: below the threshold

QKASRNESTF [POLR1D, P0DPB6]
pKd [1]: below the threshold
pKd [2]: below the threshold
pKd [3]: below the threshold
pKd [4]: below the threshold
pKd [5]: below the threshold
pKd [6]: below the threshold
pKd [7]: below the threshold
pKd [8]: below the threshold
pKd [9]: 3.64
pKd [10]: below the threshold
pKd [11]: below the threshold
pKd [12]: below the threshold
pKd [13]: below the threshold
pKd [14]: below the threshold
pKd [15]: below the threshold
pKd [16]: below the threshold
pKd [17]: below the threshold
pKd [18]: below the threshold
pKd [19]: below the threshold
pKd [20]: below the threshold
pKd [21]: below the threshold
pKd [22]: below the threshold
pKd [23]: below the threshold
pKd [24]: below the threshold
pKd [25]: below the threshold
pKd [26]: below the threshold

RDYTQSSSSL [GRM5, P41594]
pKd [1]: below the threshold
pKd [2]: below the threshold
pKd [3]: below the threshold
pKd [4]: below the threshold
pKd [5]: below the threshold
pKd [6]: below the threshold
pKd [7]: below the threshold
pKd [8]: below the threshold
pKd [9]: below the threshold
pKd [10]: 3.64
pKd [11]: below the threshold
pKd [12]: below the threshold
pKd [13]: below the threshold
pKd [14]: below the threshold
pKd [15]: below the threshold
pKd [16]: below the threshold
pKd [17]: below the threshold
pKd [18]: 5.02
pKd [19]: 3.65
pKd [20]: below the threshold
pKd [21]: below the threshold
pKd [22]: 4.17
pKd [23]: below the threshold
pKd [24]: below the threshold
pKd [25]: below the threshold
pKd [26]: below the threshold

KPDKQEEFYA [SDC3, O75056]
pKd [1]: below the threshold
pKd [2]: below the threshold
pKd [3]: below the threshold
pKd [4]: below the threshold
pKd [5]: below the threshold
pKd [6]: below the threshold
pKd [7]: below the threshold
pKd [8]: below the threshold
pKd [9]: below the threshold
pKd [10]: below the threshold
pKd [11]: below the threshold
pKd [12]: below the threshold
pKd [13]: below the threshold
pKd [14]: below the threshold
pKd [15]: below the threshold
pKd [16]: below the threshold
pKd [17]: below the threshold
pKd [18]: below the threshold
pKd [19]: 3.49
pKd [20]: below the threshold
pKd [21]: below the threshold
pKd [22]: below the threshold
pKd [23]: below the threshold
pKd [24]: below the threshold
pKd [25]: below the threshold
pKd [26]: below the threshold
